Results: PMC12000442 (Nature Communications, 2025)

Biological target: T1, NAA10^R4S-3xFLAG (human, UniProt P41227 1-235, R4S)
T1 sequence: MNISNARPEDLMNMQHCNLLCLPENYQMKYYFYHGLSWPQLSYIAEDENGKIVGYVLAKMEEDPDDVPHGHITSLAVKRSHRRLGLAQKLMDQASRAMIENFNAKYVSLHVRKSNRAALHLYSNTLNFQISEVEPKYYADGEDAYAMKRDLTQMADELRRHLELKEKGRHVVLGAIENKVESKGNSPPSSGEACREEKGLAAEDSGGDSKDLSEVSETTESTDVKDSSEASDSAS
Experiment: co-IP

binding capacity relative to WT: 0.5 relative to WT (WT = 1.0)
B1: NAA15 (natural protein)
chain: MPAVSLPPKENALFKRILRCYEHKQYRNGLKFCKQILSNPKFAEHGETLAMKGLTLNCLGKKEEAYELVRRGLRNDLKSHVCWHVYGLLQRSDKKYDEAIKCYRNALKWDKDNLQILRDLSLLQIQMRDLEGYRETRYQLLQLRPAQRASWIGYAIAYHLLEDYEMAAKILEEFRKTQQTSPDKVDYEYSELLLYQNQVLREAGLYREALEHLCTYEKQICDKLAVEETKGELLLQLCRLEDAADVYRGLQERNPENWAYYKGLEKALKPANMLERLKIYEEAWTKYPRGLVPRRLPLNFLSGEKFKECLDKFLRMNFSKGCPPVFNTLRSLYKDKEKVAIIEELVVGYETSLKSCRLFNPNDDGKEEPPTTLLWVQYYLAQHYDKIGQPSIALEYINTAIESTPTLIELFLVKAKIYKHAGNIKEAARWMDEAQALDTADRFINSKCAKYMLKANLIKEAEEMCSKFTREGTSAVENLNEMQCMWFQTECAQAYKAMNKFGEALKKCHEIERHFIEITDDQFDFHTYCMRKITLRSYVDLLKLEDVLRQHPFYFKAARIAIEIYLKLHDNPLTDENKEHEADTANMSDKELKKLRNKQRRAQKKAQIEEEKKNAEKEKQQRNQKKKKDDDDEEIGGPKEELIPEKLAKVETPLEEAIKFLTPLKNLVKNKIETHLFAFEIYFRKEKFLLMLQSVKRAFAIDSSHPWLHECMIRLFNTAVCESKDLSDTVRTVLKQEMNRLFGATNPKNFNETFLKRNSDSLPHRLSAAKMVYYLDPSSQKRAIELATTLDESLTNRNLQTCMEVLEALYDGSLGDCKEAAEIYRANCHKLFPYALAFMPPGYEEDMKITVNGDSSAEAEELANEI
